Test results published in paper PMC10080726 (Molecular cell, 2023).
No end group written: not given here.

Tests used:
[1] = target: KLHDC3-EloBC complex (full-length KLHDC3, EloB, EloC) (UniProt Q9BQ90)
[2] = target: 10xHis-KLHDC2 SBD (residues 15-361) (human) (UniProt Q9Y2U9); experiment: SPR
KLHDC2 SBD = target: T1, KLHDC2 SBD (Homo sapiens, UniProt Q9Y2U9); experiment: SPR binding to immobilised KLHDC2 SBD; conditions: for Kd: 10xHis-KLHDC2 SBD, pH 7.4, 20°C, triplicate, 1-site model, substrates (Figure S1C)
T1 sequence (Q9Y2U9 15-361): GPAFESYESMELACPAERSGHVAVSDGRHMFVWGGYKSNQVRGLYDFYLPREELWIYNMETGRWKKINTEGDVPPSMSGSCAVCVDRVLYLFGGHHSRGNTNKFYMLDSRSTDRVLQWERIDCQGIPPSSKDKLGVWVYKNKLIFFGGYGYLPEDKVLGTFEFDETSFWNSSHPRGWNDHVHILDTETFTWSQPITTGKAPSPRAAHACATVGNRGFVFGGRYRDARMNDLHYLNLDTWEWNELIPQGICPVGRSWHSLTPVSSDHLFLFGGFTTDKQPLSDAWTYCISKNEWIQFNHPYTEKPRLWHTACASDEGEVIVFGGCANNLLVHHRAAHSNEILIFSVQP

[3] = target: KLHDC2-EloBC substrate receptor complex (full-length WT KLHDC2, EloB, EloC) (UniProt Q9Y2U9); experiment: AUC
[4] = target: KLHDC2-EloBC substrate receptor complex (full-length WT KLHDC2, EloB, EloC) (UniProt Q9Y2U9); experiment: SEC
neddylated CRL2^KLHDC2 = experiment: Pulse-chase ubiquitylation of substrates or KLHDC2; format: biochemical, human
KLHDC2-EloBC = experiment: Native gel electrophoresis, substrate; format: binding, human
CUL2-RBX1 = CUL2-RBX1 neddylation pulse-chase; format: biochemical, human; conditions: tetramer supplied with substrate, without CAND1
crystal structure = target: the molecule itself; experiment: crystal structure
KLHDC2 in U2OS cells [5] = experiment: K48-ubiquitylation of FLAG-KLHDC2 in U2OS cells; format: cell-based, human; conditions: Bortezomib 1 μM, five hours, K48 antibody
[6] = system: USP1 N-fragment in U2OS cells; experiment: Steady-state USP1 N-fragment levels in U2OS cells; conditions: exogenous rescue in KLHDC2 KO U2OS, n=3 technical replicates
CUL2 in 293T cells = experiment: FLAG immunoprecipitation of KLHDC2, associated CUL2 neddylation state; format: cell-based, human; conditions: FLAG-KLHDC2, no treatment
KLHDC2 in U2OS cells [7] = experiment: Steady-state KLHDC2 protein levels in U2OS cells
NEDD8 in U2OS cells = experiment: Steady-state NEDD8 levels in U2OS cells; conditions: ectopic expression in KLHDC2 KO U2OS
[8] = target: T2, KLHDC2 substrate-binding domain (SBD), residues 15-361 (human, UniProt Q9Y2U9 15-361); experiment: crystal structure
T2 sequence (looked up): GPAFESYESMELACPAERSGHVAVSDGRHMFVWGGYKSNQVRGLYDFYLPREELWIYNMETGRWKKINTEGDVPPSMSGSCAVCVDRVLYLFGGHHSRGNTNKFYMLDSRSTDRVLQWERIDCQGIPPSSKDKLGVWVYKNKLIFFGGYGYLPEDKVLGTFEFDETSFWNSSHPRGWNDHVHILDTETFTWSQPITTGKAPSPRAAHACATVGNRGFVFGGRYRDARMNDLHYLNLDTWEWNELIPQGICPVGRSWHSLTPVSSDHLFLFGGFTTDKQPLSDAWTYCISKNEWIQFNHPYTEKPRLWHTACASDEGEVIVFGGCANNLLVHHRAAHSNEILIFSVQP

[9] = target: T3, 10xHis-KLHDC2 SBD (residues 15-361) (human, UniProt Q9Y2U9 15-361); experiment: SPR
T3 sequence (looked up): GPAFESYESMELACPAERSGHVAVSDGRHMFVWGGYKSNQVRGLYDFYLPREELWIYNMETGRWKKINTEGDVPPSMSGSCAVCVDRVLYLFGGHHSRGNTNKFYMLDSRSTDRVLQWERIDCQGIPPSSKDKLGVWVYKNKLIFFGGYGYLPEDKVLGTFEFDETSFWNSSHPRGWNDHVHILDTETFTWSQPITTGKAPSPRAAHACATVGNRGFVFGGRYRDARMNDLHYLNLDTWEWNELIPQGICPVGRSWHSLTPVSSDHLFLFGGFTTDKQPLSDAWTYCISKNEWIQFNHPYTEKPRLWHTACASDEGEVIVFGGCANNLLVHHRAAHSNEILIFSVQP

CRL2^KLHDC2 = experiment: Pre-steady state rapid quench flow ubiquitylation; format: biochemical, human; conditions: KLHDC2 -KK, UBE2R2, one-hour equilibration of substrate with E3, triplicate

## KLHDC3-EloBC complex (full-length KLHDC3, EloB, EloC) (from UniProt Q9BQ90 1-382; Q15370 1-104; Q15369 17-112)
[1]
  stoichiometry N: 4

## WT KLHDC2-derived peptide (C-terminus of KLHDC2) used in SPR
[2]
  Kd: 1400 nM

## GFP-RIC8B: C-terminal 23 amino-acids of RIC8B appended to the C-terminus of GFP ({GFP}-TITPLEEALNQYSVIEETSSDTD)
KLHDC2 SBD
  Kd: 460 nM

## KLHDC2-EloBC substrate receptor complex (full-length WT KLHDC2, EloB, EloC) (from UniProt Q9Y2U9 1-406; Q15370 1-104; Q15369 17-112)
[3]
  Kd: 0.15 nM
[4]
  Kd: 0.18 to 0.26 nM

## NQRFGSNNTSGS-OH [WT KLHDC2-derived peptide]
KLHDC2 SBD; vs peptides from physiological substrates USP1 and GFP-RIC8B
  affinity lower than physiological substrates: 3–5 fold

## KLHDC2-EloBC: full-length KLHDC2-EloBC substrate receptor complex, tetrameric
Neddylated CRL2^KLHDC2; UB~UBCH5B, WT or C-degron mutants, with or without SELK
  auto-ubiquitylation of KLHDC2: subject to auto-ubiquitylation
KLHDC2-EloBC; native gel, 2.5 μM KLHDC2, pH 7.5
  FAM-SELK binding (in words): a single band appeared
CUL2-RBX1
  rate of CUL2-RBX1 neddylation (in words): greatest

## CUL2-RBX1: CUL2-RBX1 complex
KLHDC2-EloBC; with CUL2-RBX1
  required pre-incubation time for KLHDC2-FAM-SELK complex formation: < 3 h

B1: KLHDC2, full length (the KLHDC2 chain of the KLHDC2-EloBC crystal structure) (natural protein, human, UniProt Q9Y2U9 1-406, looked up)
chain: MADGNEDLRADDLPGPAFESYESMELACPAERSGHVAVSDGRHMFVWGGYKSNQVRGLYDFYLPREELWIYNMETGRWKKINTEGDVPPSMSGSCAVCVDRVLYLFGGHHSRGNTNKFYMLDSRSTDRVLQWERIDCQGIPPSSKDKLGVWVYKNKLIFFGGYGYLPEDKVLGTFEFDETSFWNSSHPRGWNDHVHILDTETFTWSQPITTGKAPSPRAAHACATVGNRGFVFGGRYRDARMNDLHYLNLDTWEWNELIPQGICPVGRSWHSLTPVSSDHLFLFGGFTTDKQPLSDAWTYCISKNEWIQFNHPYTEKPRLWHTACASDEGEVIVFGGCANNLLVHHRAAHSNEILIFSVQPKSLVRLSLEAVICFKEMLANSWNCLPKHLLHSVNQRFGSNNTSGS
Crystal structure
  binding result: binds

B2: WT KLHDC2: FLAG-tagged WT KLHDC2 expressed in cells; KLHDC2 in CRL2^KLHDC2 (protein)
chain: MADGNEDLRADDLPGPAFESYESMELACPAERSGHVAVSDGRHMFVWGGYKSNQVRGLYDFYLPREELWIYNMETGRWKKINTEGDVPPSMSGSCAVCVDRVLYLFGGHHSRGNTNKFYMLDSRSTDRVLQWERIDCQGIPPSSKDKLGVWVYKNKLIFFGGYGYLPEDKVLGTFEFDETSFWNSSHPRGWNDHVHILDTETFTWSQPITTGKAPSPRAAHACATVGNRGFVFGGRYRDARMNDLHYLNLDTWEWNELIPQGICPVGRSWHSLTPVSSDHLFLFGGFTTDKQPLSDAWTYCISKNEWIQFNHPYTEKPRLWHTACASDEGEVIVFGGCANNLLVHHRAAHSNEILIFSVQPKSLVRLSLEAVICFKEMLANSWNCLPKHLLHSVNQRFGSNNTSGS
modifications: left off: FLAG, N-terminal, kept
KLHDC2 in U2OS cells [5]
  ubiquitylation of KLHDC2 (in words): more ubiquitylated than their monomeric counterparts
[6]
  reduction of USP1 N-fragment levels: ~ 4 fold
Neddylated CRL2^KLHDC2; no substrate, UB~UBE2R2
  auto-ubiquitylation of KLHDC2: rapidly ubiquitylated
CUL2 in 293T cells
  co-precipitated CUL2 neddylation state (in words): co-precipitated a mixture of unmodified and neddylated CUL2
KLHDC2 in U2OS cells [7]; U2OS
  exogenous expression relative to endogenous KLHDC2: roughly 10 -fold
KLHDC2 in U2OS cells [7]; stable FLAG-KLHDC2 in KLHDC2 KO U2OS
  KLHDC2 protein level (in words): significantly lower than that of CΔ6 and -KK monomers
NEDD8 in U2OS cells
  NEDD8 levels (in words): reduced the levels of unconjugated NEDD8

## NQRFGSNNTSGS (peptide, UniProt Q9Y2U9 395-406, looked up) [12mer peptide derived from the C-terminus of KLHDC2]
[8]
  binding result: binds

B3: USP1 fragment (residues 592-671) (domain or fragment, UniProt O94782 592-671, looked up)
chain: GHYTASVKVTDLNSLELDKGNFVVDQMCEIGKPEPLNEEEARGVVENYNDEEVSIRVGGNTQPSKVLNKKNVEAIGLLGG
[9]
  Kd: 264 nM

B4: USP1: USP1 fragment, residues 592–671 (protein)
chain: GHYTASVKVTDLNSLELDKGNFVVDQMCEIGKPEPLNEEEARGVVENYNDEEVSIRVGGNTQPSKVLNKKNVEAIGLLGG
modifications: left off: GST, N-terminal, cleaved
KLHDC2 SBD
  Kd: 260 nM
Neddylated CRL2^KLHDC2; KLHDC2 -KK
  pre-incubation required for maximal ubiquitylation (in words): required no pre-incubation
Neddylated CRL2^KLHDC2; UB~UBE2R2, neddylated CRL2^KLHDC2 (WT), 0.6 μM substrate, pH 7.5, n=3
  *UB transfer to substrate (in words): preferentially promotes *UB ligation to SELK or USP1
CRL2^KLHDC2
  rate of substrate modification kobs: 0.21 s⁻¹

B5: FAM-USP1: fluorescein-labeled USP1 fragment (protein)
chain: GHYTASVKVTDLNSLELDKGNFVVDQMCEIGKPEPLNEEEARGVVENYNDEEVSIRVGGNTQPSKVLNKKNVEAIGLLGG
modifications: fluorescein on the amino-terminus (sortase-mediated ligation of FAM-(PEG)5-LPETGG peptide); left off: GST, N-terminal, cleaved
KLHDC2-EloBC; 20-fold molar excess of ligand, 4-hour pre-incubation
  complex formation with KLHDC2-EloBC (in words): only minimal interaction
